According to paper PMC8026774:

Experiments:
[1] = target: MOR-1A-PK (mouse)
[2] = target: MOR-1B1-PK (mouse)
[3] = target: MOR-1C-PK (mouse)
[4] = target: MOR-1E-PK (mouse)
[5] = target: MOR-TR-PK (mouse)
[6] = target: MOR-1-PK (mouse) (UniProt P42866)
[7] = target: MOR-1O-PK (mouse)
[8] = target: MOR-1O (untagged) (mouse); experiment: radioligand binding
[9] = target: MOR-1O-PK (mouse); experiment: radioligand binding

Substance | [35S]GTPγS binding (G-protein activation), EC50 [1] [nM] | [35S]GTPγS binding (G-protein activation), EC50 [2] [nM] | [35S]GTPγS binding (G-protein activation), EC50 [3] [nM] | [35S]GTPγS binding (G-protein activation), EC50 [4] [nM] | [35S]GTPγS binding (G-protein activation), EC50 [5] [nM] | [35S]GTPγS binding (G-protein activation), EC50 [6] [nM] | [35S]GTPγS binding (G-protein activation), EC50 [7] [nM] | Ki [8] [nM] | Ki [9] [nM]
DAMGO (peptide) | 39 | 110 | 195 | 29 | 48 | – | – | – | –
[Met^5]enkephalin-Arg^6,Phe^7 (peptide) | 13 | 33 | 69 | – | 73 | 16 | 82 | – | –
endomorphin-1 (peptide) | 86 | 113 | 116 | 42 | 107 | 44 | 282 | – | –
endomorphin-2 (peptide) | 131 | 367 | 111 | 101 | 55 | 90 | 335 | – | –
β-endorphin (from UniProt P01189) (peptide) | – | – | – | – | – | – | 192 | 13.3 | 38.2
